The chains are these.
B1: Peroxisomal targeting signal receptor (Saccharomyces cerevisiae), P35056 (parent)
chain: MDVGSCSVGNNPLAQLHKHTQQNKSLQFNQKNNGRLNESPLQGTNKPGISEAFISNVNAISQENMANMQRFINGEPLIDDKRRMEIGPSSGRLPPFSNVHSLQTSANPTQIKGVNDISHWSQEFQGSNSIQNRNADTGNSEKAWQRGSTTASSRFQYPNTMMNNYAYASMNSLSGSRLQSPAFMNQQQSGRSKEGVNEQEQQPWTDQFEKLEKEVSENLDINDEIEKEENVSEVEQNKPETVEKEEGVYGDQYQSDFQEVWDSIHKDAEEVLPSELVNDDLNLGEDYLKYLGGRVNGNIEYAFQSNNEYFNNPNAYKIGCLLMENGAKLSEAALAFEAAVKEKPDHVDAWLRLGLVQTQNEKELNGISALEECLKLDPKNLEAMKTLAISYINEGYDMSAFTMLDKWAETKYPEIWSRIKQQDDKFQKEKGFTHIDMNAHITKQFLQLANNLSTIDPEIQLCLGLLFYTKDDFDKTIDCFESALRVNPNDELMWNRLGASLANSNRSEEAIQAYHRALQLKPSFVRARYNLAVSSMNIGCFKEAAGYLLSVLSMHEVNTNNKKGDVGSLLNTYNDTVIETLKRVFIAMNRDDLLQEVKPGMDLKRFKGEFSF
partner: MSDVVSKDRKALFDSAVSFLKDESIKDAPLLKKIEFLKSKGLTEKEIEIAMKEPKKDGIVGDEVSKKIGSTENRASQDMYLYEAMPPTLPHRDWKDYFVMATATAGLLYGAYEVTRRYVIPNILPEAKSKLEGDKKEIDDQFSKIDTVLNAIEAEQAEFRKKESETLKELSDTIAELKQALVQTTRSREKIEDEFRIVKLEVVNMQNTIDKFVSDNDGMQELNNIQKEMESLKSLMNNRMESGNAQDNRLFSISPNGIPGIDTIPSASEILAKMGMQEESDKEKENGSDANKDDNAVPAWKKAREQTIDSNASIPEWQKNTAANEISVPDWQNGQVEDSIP

These results are taken from IntAct's records for PubMed 15949802.

Variants of B1 are the subject of one experiment. Particulars: with pex14_yeast PEX14, P53112.
On to W120A;W204A, for which the “effect of a mutation on the interaction” value is given as “disrupting interaction”.

A further experiment covers variants of B1. Particulars: with pex14_yeast PEX14, P53112. This is another data set of the same source.
For W204A, the “effect of a mutation on the interaction” value was “decreasing interaction”.
